From paper PMC7859323
Values joined by “and” are separate entries in the source; they are usually repeats but may differ in a detail not shown here. Equal values may be shown once.

Biological target: Gla domainless factor VIIa (human) (UniProt P08709)
Experiment: titration of enzyme activity (rate of FX activation by des Gla-FVIIa)

Sequence of UniProt P08709 (P08709 21-466, chain 1 of 2): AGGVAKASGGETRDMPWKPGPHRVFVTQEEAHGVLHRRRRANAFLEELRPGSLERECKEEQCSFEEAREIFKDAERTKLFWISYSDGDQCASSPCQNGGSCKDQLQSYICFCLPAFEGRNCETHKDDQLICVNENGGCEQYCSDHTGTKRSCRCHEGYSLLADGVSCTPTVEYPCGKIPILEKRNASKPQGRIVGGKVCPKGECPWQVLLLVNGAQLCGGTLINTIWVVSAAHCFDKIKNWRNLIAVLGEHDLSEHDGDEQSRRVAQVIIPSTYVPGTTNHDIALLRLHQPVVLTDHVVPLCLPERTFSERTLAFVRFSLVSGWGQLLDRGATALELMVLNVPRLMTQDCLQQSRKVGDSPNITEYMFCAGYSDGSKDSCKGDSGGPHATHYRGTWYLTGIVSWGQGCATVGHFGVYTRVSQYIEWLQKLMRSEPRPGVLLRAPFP
Sequence of UniProt P08709 (P08709 213-466, chain 2 of 2): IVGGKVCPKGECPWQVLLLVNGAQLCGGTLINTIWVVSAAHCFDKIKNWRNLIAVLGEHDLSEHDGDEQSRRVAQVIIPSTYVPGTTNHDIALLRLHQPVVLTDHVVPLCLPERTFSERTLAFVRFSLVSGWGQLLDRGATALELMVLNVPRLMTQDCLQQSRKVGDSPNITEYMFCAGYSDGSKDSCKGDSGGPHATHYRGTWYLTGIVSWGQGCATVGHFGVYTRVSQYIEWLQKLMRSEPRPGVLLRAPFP

For “recombinant soluble tissue factor (from UniProt P13726 33-251) (domain or fragment)”, the Kd was 5 nM and 2.7 nM.
